Experimental data reported in patent US20080267985A1.

B1: Phl p 1 NoCys Δ1-6, 115-119, 213-220 (histidine fusion protein) (protein, not shown: small tags and cut ends)
chain: GPNITATYGDKWLDAKSTWYGKPTAAGPKDNGGASGYKDVDKPPFSGMTGSGNTPIFKSGRGSGSSFEIKSTKPEASSGEPVVVHITDDNEEPIAAYHFDLSGIAFGSDEQKLRSAGEVEIQFRRVKSKYPEGTKVTFHVEKGSNPNYLALLVKFVAGDGDVVAVDIKEKGKDKWIALKESWGAIWRIDTPEVLKGPFTVRGEAKDVIPEGWKADTAYESK
B2: Phl p 1 NoCys (histidine fusion protein) (protein, not shown: small tags and cut ends)
chain: IPKVPPGPNITATYGDKWLDAKSTWYGKPTAAGPKDNGGASGYKDVDKPPFSGMTGSGNTPIFKSGRGSGSSFEIKSTKPEASSGEPVVVHITDDNEEPIAAYHFDLSGIAFGSMAKKGDEQKLRSAGEVEIQFRRVKSKYPEGTKVTFHVEKGSNPNYLALLVKFVAGDGDVVAVDIKEKGKDKWIALKESWGAIWRIDTPEVLKGPFTVRYTTEGGTKGEAKDVIPEGWKADTAYESK
B3: Phl p 1 NoCys Δ213-220 (histidine fusion protein) (protein, not shown: small tags and cut ends)
chain: IPKVPPGPNITATYGDKWLDAKSTWYGKPTAAGPKDNGGASGYKDVDKPPFSGMTGSGNTPIFKSGRGSGSSFEIKSTKPEASSGEPVVVHITDDNEEPIAAYHFDLSGIAFGSMAKKGDEQKLRSAGEVEIQFRRVKSKYPEGTKVTFHVEKGSNPNYLALLVKFVAGDGDVVAVDIKEKGKDKWIALKESWGAIWRIDTPEVLKGPFTVRGEAKDVIPEGWKADTAYESK

Columns and labels:
[1] = target: IgE antibodies from sera of grass pollen allergy sufferers (human); assay: cell-based or functional assay
[2] = target: IgE antibodies from sera of grass pollen allergy sufferers (human); assay: EAST inhibition test, four individual sera, plate-bound nPhl p 1, inhibitor up to 5 µg/ml

Binder | allergenic efficacy from A50 values, basophil activation test (CD203c), against reference nPhl p 1 [1] [fold] | percent of the maximum inhibitory action of nPhl p 1 [2] [%]
B1 | > 1000 | 
B2 |  | 20 to 50
B3 | 100 to 1000 | 
